Reference: patent US20250361314A1 (SHANGHAI HUAOTA BIOPHARMACEUTICAL, published 2025)

T1: Human CD39 antigen (human, UniProt P49961 38-478)
T1 construct: Antigen used as analyte in SPR; also called ENTPD1
T1 sequence (looked up): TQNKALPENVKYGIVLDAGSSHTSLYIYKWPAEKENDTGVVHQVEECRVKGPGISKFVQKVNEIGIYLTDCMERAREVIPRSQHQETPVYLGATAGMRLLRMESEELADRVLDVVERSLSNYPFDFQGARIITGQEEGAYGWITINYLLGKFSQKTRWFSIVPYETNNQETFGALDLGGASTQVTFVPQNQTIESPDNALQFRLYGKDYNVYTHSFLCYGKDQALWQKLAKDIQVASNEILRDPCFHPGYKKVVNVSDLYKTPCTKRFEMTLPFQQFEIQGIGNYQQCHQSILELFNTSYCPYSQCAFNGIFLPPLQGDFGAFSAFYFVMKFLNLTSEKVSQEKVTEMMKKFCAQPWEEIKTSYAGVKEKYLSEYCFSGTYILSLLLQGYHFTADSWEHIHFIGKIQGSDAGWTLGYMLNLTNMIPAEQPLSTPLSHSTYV

T2: Human CD39 on CHOK1-huCD39-10B6 cells overexpressing CD39 (human, UniProt P49961 1-510)
T2 sequence (looked up): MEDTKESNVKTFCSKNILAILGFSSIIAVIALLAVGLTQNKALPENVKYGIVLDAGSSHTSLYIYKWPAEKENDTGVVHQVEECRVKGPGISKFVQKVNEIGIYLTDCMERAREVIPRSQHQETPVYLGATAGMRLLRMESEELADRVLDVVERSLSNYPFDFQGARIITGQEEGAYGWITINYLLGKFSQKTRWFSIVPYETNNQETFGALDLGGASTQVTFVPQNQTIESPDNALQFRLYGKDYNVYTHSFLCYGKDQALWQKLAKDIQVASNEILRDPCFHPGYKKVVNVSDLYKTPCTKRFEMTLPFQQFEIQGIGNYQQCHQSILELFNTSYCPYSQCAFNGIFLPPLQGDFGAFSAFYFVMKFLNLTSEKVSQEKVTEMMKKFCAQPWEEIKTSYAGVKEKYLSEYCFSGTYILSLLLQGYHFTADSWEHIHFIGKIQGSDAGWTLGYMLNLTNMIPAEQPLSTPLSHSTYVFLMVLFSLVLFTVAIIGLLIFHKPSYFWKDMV

T3: Human CD73 antigen (human, UniProt P21589 27-547, limits assumed)
T3 construct: Antigen used as analyte in SPR; also called NT5E
T3 sequence (looked up): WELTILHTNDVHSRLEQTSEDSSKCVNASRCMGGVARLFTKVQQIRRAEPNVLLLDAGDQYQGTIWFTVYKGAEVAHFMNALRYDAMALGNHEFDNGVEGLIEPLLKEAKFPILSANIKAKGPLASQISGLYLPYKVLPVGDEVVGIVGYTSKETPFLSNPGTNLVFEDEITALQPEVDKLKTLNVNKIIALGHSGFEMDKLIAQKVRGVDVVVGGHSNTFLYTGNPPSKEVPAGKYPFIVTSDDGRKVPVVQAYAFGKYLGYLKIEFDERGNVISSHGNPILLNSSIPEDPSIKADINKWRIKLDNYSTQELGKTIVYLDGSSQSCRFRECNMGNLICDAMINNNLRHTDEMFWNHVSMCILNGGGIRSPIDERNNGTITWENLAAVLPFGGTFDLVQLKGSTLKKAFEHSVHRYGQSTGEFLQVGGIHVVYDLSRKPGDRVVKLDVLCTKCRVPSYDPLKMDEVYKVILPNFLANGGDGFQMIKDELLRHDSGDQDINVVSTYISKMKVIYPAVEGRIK

T4: Human CD73 on CHOK1-huCD73-3F4 cells overexpressing CD73 (human, UniProt P21589 27-549)
T4 sequence (looked up): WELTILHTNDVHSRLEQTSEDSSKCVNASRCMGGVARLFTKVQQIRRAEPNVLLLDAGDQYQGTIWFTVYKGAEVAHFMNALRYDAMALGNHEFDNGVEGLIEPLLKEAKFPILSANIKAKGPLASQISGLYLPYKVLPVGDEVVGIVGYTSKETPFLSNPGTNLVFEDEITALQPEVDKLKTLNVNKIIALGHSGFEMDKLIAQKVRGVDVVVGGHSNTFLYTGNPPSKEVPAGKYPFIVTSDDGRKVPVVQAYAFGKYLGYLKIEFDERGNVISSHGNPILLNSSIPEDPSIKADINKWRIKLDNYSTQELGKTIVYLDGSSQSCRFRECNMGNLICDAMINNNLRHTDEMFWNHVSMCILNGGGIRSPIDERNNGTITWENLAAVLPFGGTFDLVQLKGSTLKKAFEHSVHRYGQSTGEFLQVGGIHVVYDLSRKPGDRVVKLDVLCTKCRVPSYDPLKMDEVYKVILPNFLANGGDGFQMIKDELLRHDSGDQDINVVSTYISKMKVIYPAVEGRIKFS


Legend:
[1] = molecular target: T1, Human CD39 antigen; test: SPR (Biacore 8K), antibody captured on anti-human capture CM5 chip, antigen as analyte, 1:1 model
Description: (§1) An Anti-Human Capture-CM5 chip (GE, #BR-1005-30) was prepared using coupling methods of a Human Antibody Capture Kit (GE, #BR-1008-39) and an amino coupling kit (GE, BR-1000-50). The chip was equilibrated at room temperature for 20-30 mins and loaded into a Biacore 8K instrument. The antigen and antibody were diluted to an experimental working concentration using an equilibration buffer. The antigens were diluted with the equilibrium buffer to 50 nM, and then diluted three-fold for seven concentration gradients, and two zero concentrations (i.e., the equilibrium buffer) and one repeat concentration (typically the lowest concentration repeat) were set. Experimental analysis was performed on 10 antigen concentrations (2 zero concentrations, 7 gradient concentrations, and 1 repeated concentration) in a cyclic manner according to an order of antibody, antigen, and regeneration. The antigen injection flow rate was 30 μL/min, the binding time was 120 s, and the dissociation time was 600 s. Following the analysis, the data was analyzed using the corresponding analysis program to confirm that there was no obvious reference binding. Using Kinetics and a 1:1 binding model, the data was fit to obtain the kinetic related parameters Ka, Kd, and KD values of the bispecific antibodies and parental control antibodies.

[2] = molecular target: T2, Human CD39 on CHOK1-huCD39-10B6 cells …; test: cell-based or functional assay
[3] = molecular target: T3, Human CD73 antigen; test: SPR (Biacore 8K), antibody captured on anti-human capture CM5 chip, antigen as analyte, 1:1 model
Description: as §1

[4] = molecular target: T4, Human CD73 on CHOK1-huCD73-3F4 cells …; test: cell-based or functional assay
[5] = molecular target: soluble recombinant protein CD73; test: cell-based or functional assay
Chain of soluble recombinant protein CD73 (P21589 whole entry): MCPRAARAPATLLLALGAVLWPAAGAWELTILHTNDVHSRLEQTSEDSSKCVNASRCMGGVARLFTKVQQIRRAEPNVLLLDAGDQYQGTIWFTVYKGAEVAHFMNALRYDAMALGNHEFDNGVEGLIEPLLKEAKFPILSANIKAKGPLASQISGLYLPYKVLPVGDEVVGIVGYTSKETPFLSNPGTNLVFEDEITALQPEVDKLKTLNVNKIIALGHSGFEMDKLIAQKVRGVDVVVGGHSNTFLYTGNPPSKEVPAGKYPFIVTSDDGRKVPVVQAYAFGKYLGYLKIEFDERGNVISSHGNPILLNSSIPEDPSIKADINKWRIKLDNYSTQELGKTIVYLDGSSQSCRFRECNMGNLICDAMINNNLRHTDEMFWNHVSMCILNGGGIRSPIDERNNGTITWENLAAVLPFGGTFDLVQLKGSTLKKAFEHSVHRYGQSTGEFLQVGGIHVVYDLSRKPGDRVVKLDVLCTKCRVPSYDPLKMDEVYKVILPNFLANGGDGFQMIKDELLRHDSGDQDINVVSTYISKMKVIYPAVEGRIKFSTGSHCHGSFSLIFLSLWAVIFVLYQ

Kd [1] [nM] | koff [1] [s⁻¹] | kon [1] [M⁻¹ s⁻¹] | EC50 (µg/mL), inhibition of CD39 ATPase activity on CHOK1-huCD39-10B6 cells (CellTiter Glo) [2] [µg/mL] | Kd [3] [nM] | koff [3] [s⁻¹] | kon [3] [M⁻¹ s⁻¹] | EC50 (µg/mL), inhibition of enzyme activity of membrane CD73 on CHOK1-huCD73-3F4 cells (CellTiter Glo) [4] [µg/mL] | EC50 (µg/mL), inhibition of enzyme activity of soluble CD73 protein (CellTiter Glo) [5] [µg/mL] | Binder
0.14 | 0.000102 | 730000 | 0.558 |  |  |  |  |  | 700053 (CD39 nanobody) (VHH, In the SPR it was captured on an anti-human antibody capture chip, so the tested construct may carry a human Fc) VHH: QVQLVESGGGLVQPGGSLRLSCAASGSISSIAAMGWYRQAPGKERELVAAITSGGNTNLADSTKGRFTISRDNTKNTVYLQMNSLKPEDTAVYYCNAWGEDDSSWFGTDLCDYWGQGTQVTVSS
 |  |  |  | 0.184 | 0.000182 | 988000 | 0.32 |  | 900725 (CD73 parental monoclonal antibody corresponding to 700035) (antibody, human IgG1, kappa, L234A L235A, V domains shown) VH: QVQLVQSGAEVKKPGASVKLSCKASGYTFTSYWIHWVRQAPGQGLEWIGMIHPNSGSTYYNEKFKGRATLTVDKSTSTAYMELSSLRSEDTAVYYCARYYGSDYEWYFDVWGQGTTVTVSS VL: DIQMTQSPSSMSASVGDRVTITCKASQNVRTAVVWYQQKPGKAPKALIYLASNRHTGVPDRFSGSGSGTDFTLTISSLQPEDFATYFCLQHWNYPYTFGQGTKLEIKR
 |  |  |  | 0.382 | 0.000215 | 561000 |  | 1.74 | 900698 (CD73 parental monoclonal antibody corresponding to 700038) (antibody, human IgG1, kappa, L234A L235A, V domains shown) VH: QVQLVESGGGLVKPGGSLRLSCAASGFTFSKYAMSWIRQAPGKGLEWVAEISSGGGYINYADSVKGRFTISRDNAKNSLYLQMNSLRAEDTAVYYCARAIYYYGSSYNYYAMDYWGQGTTVTVSS VL: DIQMTQSPSSLSASVGDRVTITCRASQDVGTAEAWYQQKPGKAPKLLIYWASTRHTGVPSRFSGSGSGTDFTLTISSLQPEDFATYYCQQYSSYPLTFGQGTKLEIKR
